{"source": "paper PMC3223204", "about": "“Implantation Serine Proteinase 1 Exhibits Mixed Substrate Specificity that Silences Signaling via Proteinase-Activated Receptors” (PLoS ONE, 2011)", "key": {"human PAR1": {"molecular_target": "T1, human PAR1 (Homo sapiens, UniProt P25116)", "T1 construct": "The human HEK293 cells, that constitutively express both PAR1 and PAR2; endogenous in cells; host or cells: HEK293 (expressing SV40 T-antigen)", "T1 sequence (P25116 22-425)": "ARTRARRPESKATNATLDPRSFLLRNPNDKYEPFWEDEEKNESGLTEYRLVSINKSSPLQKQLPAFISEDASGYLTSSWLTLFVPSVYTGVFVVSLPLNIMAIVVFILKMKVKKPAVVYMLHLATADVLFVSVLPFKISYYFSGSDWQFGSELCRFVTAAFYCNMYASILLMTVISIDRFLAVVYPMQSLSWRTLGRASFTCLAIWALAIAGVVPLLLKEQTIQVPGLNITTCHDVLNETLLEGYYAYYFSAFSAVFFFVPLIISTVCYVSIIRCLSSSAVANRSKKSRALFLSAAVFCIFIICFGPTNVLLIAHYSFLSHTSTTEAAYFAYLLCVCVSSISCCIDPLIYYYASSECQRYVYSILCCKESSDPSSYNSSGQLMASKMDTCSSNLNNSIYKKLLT", "test": "Calcium signaling assay, PAR1 activation/disarming in HEK cells", "format": "cell-based", "source_text": "The Kirsten virus-transformed normal rat kidney (KNRK) epithelial cell line expressing wild-type rat PAR2 (KNRKrPAR2), validated previously for studies of receptor activation was used to evaluate the PAR2-regulating properties of the ISP1 by the methods described previously. Human embryonic kidney cells (HEK293) that express the SV40 T-antigen were kindly provided by Dr. Jonathan Lytton, University of Calgary, Faculty of Medicine, Calgary (Alberta) Canada. The human HEK293 cells, that constitutively express both PAR1 and PAR2, were grown under similar conditions as described for the KNRK cells, but in the absence of geneticin, as outlined for the PAR-mediated calcium signaling procedure described previously. All cells were sub-cultured by dissociation in an isotonic EDTA/saline solution, pH 7.4, without the use of trypsin, to avoid cleavage of PARs.\nCell lines (grown to about 85% confluence and disaggregated with calcium-free isotonic phosphate-buffered saline containing 0.2 mM EDTA) and rat platelets (harvested from platelet-rich anti-coagulated plasma) were prepared and used as previously described. Cells were incubated for 25 min at room temperature with Fluo-3 acetoxymethyl ester (final concentration, 22 µM) along with 0.4 mM sulfinpyrazone. Cells were washed twice by centrifugation (using the following buffer without calcium) and resuspended in the calcium signaling buffer: 150 mM NaCl, 3 mM KCl, 1.5 mM CaCl2, 20 mM HEPES, 10 mM dextrose, and 0.25 mM sulfinpyrazone, pH 7.4.\nFluorescence was measured at 24 °C with an excitation wavelength of 480 nm and an emission recorded at 530 nm using an Aminco Bowman Series 2 Luminescence spectrometer (ThermoSpectronic Model FA354, Spectronic Unicam, Rochester, NY). The fluorescence signals caused by the addition of test agonists (trypsin, PAR-activating peptide or rISP1, added to 2 ml of a cell suspension of ~3 x 10^5 cells/ml) were compared with the fluorescence peak height yielded by replicate cell suspensions treated with 2 µM ionophore A23187. This concentration of A23187 was at the plateau of its concentration-response curve for a fluorescence response in Fluo-3-loaded cultured cells. Under these conditions, the calculated values for intracellular calcium in the HEK and KNRK cells were [picture] […]\nPrevious work has shown that the fluorescence response of a cell preparation, as a percentage relative to the signal generated by 2 µM A23187, is a valid reference standard for the comparative determination of calcium signals for all PAR agonists. The cellular calcium response was therefore recorded as a percentage of the response generated by 2 µM ionophore A23187 [6]. […]\nReceptor activation was monitored as an enzyme-stimulated increase in fluorescence emission (E530). […]"}, "[1]": {"tested_on": "rat PAR2-expressing KNRK cells", "test": "P44/42 ERK/MAP kinase activation in rat PAR2-expressing KNRK cells", "format": "cell-based", "details": "ISP1 for 10 min", "protocol": "Western blot detection of P44/42 ERK was performed essentially as described. In brief, KNRK cells that had been transfected with the PAR2 expressing construct (PAR2 -KNRK) or empty vector (pcDNA3-KNRK) were serum starved and stimulated with ISP1 for 10 min. Cells were placed on ice and agonists were removed prior to lysis with cold lysis buffer (Roche). Protein samples were boiled for 10 min in Laemelis buffer and resolved on SDS-PAGE gels. Activation of MAP Kinase was monitored by immunoblotting with phospho-specific ERK antibodies (Cell signaling) and relative increases in ERK phosphorylation was quantified relative to total ERK signal detected in the same samples. As a positive control cells were activated with SLIGRL-NH2 that causes a PAR2-mediated increase in MAPkinase phosphorylation."}}, "note": "Entries after “also recorded” stand apart in the source; their conditions may differ.", "data": [{"molecule": "ISP1: recombinant implantation serine proteinase 1 expressed in Pichia pastoris, also known as Mouse Prss28 (protein, UniProt Q924N9 27-274, looked up, recombinant, Pichia pastoris-expressed, recombinant implantation serine proteinase 1 expressed in Pichia pastoris, also known as Mouse Prss28) Serine protease 28: KPVGIVGGQRTPPGKWPWQVSLRMYSYEVNSWVHICGGSIIHPQWILTAAHCIQSQDADPAVYRVQVGEVYLYKEQELLNISRIIIHPDYNDVSKRFDLALMQLTALLVTSTNVSPVSLPKDSSTFDSTDQCWLVGWGNLLQRVPLQPPYQLHEVKIPIQDNKSCKRAYRKKSSDEHKAVAIFDDMLCAGTSGRGPCFGDSGGPLVCWKSNKWIQVGVVSKGIDCSNNLPSIFSRVQSSLAWIHQHIQ", "values": [{"measurement": "Cellular response to PAR1-activating peptide after ISP1 pre-treatment", "setting": "human PAR1; TFLLR-NH2 (5 µM), concentration-dependent", "value": "diminished"}, {"measurement": "Activation of a calcium signal via PAR1", "setting": "human PAR1; enzyme alone", "value": "did not activate a calcium signal"}, {"measurement": "residual PAR1 activity", "setting": "human PAR1; pre-treatment with 5 Units/ml ISP1, then thrombin (0.5 units/ml)", "value": 20, "unit": "%"}, {"measurement": "residual PAR1 activity", "setting": "human PAR1; pre-treatment with 20 units ISP1/ml, then thrombin (0.5 units/ml)", "value": "eliminate PAR1 activity completely"}, {"measurement": "Phosphorylation status of ERK via MAP kinase activation", "setting": "[1]", "value": "No change in phosphorylation status of ERK; also recorded: No activation of ERK"}]}]}
